The labels stand for the following.
B2: His6-N-WASp (natural protein, human, UniProt O00401 1-505, looked up)
chain: MSSVQQQPPPPRRVTNVGSLLLTPQENESLFTFLGKKCVTMSSAVVQLYAADRNCMWSKKCSGVACLVKDNPQRSYFLRIFDIKDGKLLWEQELYNNFVYNSPRGYFHTFAGDTCQVALNFANEEEAKKFRKAVTDLLGRRQRKSEKRRDPPNGPNLPMATVDIKNPEITTNRFYGPQVNNISHTKEKKKGKAKKKRLTKADIGTPSNFQHIGHVGWDPNTGFDLNNLDPELKNLFDMCGISEAQLKDRETSKVIYDFIEKTGGVEAVKNELRRQAPPPPPPSRGGPPPPPPPPHNSGPPPPPARGRGAPPPPPSRAPTAAPPPPPPSRPSVAVPPPPPNRMYPPPPPALPSSAPSGPPPPPPSVLGVGPVAPPPPPPPPPPPGPPPPPGLPSDGDHQVPTTAGNKAALLDQIREGAQLKKVEQNSRPVSCSGRDALLDQIRQGIQLKSVADGQESTPPTPAPTSGIVGALMEVMQKRSKAIHSSDEDEDEDDEEDFEDDDEWED

Where only a bound is given, the exact number is not on record here.

Common to all, as to assay: pull-down
The assay “His6-N-WASp” deals with B2.
Assay [1] concerns the target full-length Arg (His6-Arg) (mouse, UniProt Q4JIM5 1-1182).
For assay [2], the target named is Phosphorylated N-WASp (pN-WASp) (human, UniProt O00401 1-505, tyrosine phosphorylated by co-expressed Arg; Y256 is the primary site).

For orientation: Kd means the free concentration of one partner at which half of the binding sites on the other are occupied at equilibrium, for simple one-to-one binding.

full-length Arg (His6-Arg), sequence (Q4JIM5 whole entry): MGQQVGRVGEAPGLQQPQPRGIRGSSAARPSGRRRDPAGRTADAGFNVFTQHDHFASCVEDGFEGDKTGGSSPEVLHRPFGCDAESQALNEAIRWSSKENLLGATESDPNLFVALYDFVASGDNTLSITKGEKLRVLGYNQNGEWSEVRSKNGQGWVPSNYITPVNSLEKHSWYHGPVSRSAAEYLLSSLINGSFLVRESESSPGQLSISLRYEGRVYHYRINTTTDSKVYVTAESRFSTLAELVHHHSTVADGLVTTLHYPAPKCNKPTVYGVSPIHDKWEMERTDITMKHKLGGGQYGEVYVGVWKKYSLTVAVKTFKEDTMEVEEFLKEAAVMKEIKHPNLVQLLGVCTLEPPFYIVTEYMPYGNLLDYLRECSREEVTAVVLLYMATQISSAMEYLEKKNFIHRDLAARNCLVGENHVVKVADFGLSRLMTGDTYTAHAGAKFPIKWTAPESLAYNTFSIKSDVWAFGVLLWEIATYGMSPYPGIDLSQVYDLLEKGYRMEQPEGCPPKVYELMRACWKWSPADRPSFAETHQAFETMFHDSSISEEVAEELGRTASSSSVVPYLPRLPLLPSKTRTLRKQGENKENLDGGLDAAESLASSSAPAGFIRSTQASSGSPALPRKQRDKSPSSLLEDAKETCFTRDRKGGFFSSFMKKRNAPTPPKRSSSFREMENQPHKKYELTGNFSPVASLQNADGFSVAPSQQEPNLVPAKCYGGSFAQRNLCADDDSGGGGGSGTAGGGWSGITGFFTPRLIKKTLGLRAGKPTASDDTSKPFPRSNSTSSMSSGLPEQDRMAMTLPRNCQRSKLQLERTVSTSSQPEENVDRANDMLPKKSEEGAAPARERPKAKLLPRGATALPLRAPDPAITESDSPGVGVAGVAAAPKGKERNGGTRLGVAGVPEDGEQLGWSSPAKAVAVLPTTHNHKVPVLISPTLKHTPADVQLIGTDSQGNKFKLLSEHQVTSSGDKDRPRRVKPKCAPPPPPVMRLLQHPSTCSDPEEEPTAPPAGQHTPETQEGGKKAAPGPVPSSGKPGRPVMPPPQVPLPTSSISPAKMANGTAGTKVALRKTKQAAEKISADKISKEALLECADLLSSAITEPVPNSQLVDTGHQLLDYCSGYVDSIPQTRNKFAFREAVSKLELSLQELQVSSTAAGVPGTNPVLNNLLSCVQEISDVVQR

B1: GST-Arg-SH3 (domain or fragment, mouse, UniProt Q4JIM5 107-167, looked up)
chain: SDPNLFVALYDFVASGDNTLSITKGEKLRVLGYNQNGEWSEVRSKNGQGWVPSNYITPVNS
With B1, binding with His6-N-WASp was characterised by a dissociation constant (Kd) of 1400 ± 200 nM.
In turn, B2 returned a Kd in assay [1] of no less than 3800 nM.

B3: GST-Arg-SH3SH2 (domain or fragment, mouse, UniProt Q4JIM5 107-263, looked up)
chain: SDPNLFVALYDFVASGDNTLSITKGEKLRVLGYNQNGEWSEVRSKNGQGWVPSNYITPVNSLEKHSWYHGPVSRSAAEYLLSSLINGSFLVRESESSPGQLSISLRYEGRVYHYRINTTTDSKVYVTAESRFSTLAELVHHHSTVADGLVTTLHYPA
For the molecule B3, the Kd in assay [2] was 1700 ± 100 nM; in the assay with His6-N-WASp, no less than 3700 nM.

The values above are taken from PMC2836179 (Biochemistry, 2010).
